T1: IL-18 receptor (IL-18Rα and IL-18Rβ) on HEK-Blue IL-18 cells (UniProt Q13478 19-541; O95256 20-599, limits assumed)
T1 sequence (looked up) 1: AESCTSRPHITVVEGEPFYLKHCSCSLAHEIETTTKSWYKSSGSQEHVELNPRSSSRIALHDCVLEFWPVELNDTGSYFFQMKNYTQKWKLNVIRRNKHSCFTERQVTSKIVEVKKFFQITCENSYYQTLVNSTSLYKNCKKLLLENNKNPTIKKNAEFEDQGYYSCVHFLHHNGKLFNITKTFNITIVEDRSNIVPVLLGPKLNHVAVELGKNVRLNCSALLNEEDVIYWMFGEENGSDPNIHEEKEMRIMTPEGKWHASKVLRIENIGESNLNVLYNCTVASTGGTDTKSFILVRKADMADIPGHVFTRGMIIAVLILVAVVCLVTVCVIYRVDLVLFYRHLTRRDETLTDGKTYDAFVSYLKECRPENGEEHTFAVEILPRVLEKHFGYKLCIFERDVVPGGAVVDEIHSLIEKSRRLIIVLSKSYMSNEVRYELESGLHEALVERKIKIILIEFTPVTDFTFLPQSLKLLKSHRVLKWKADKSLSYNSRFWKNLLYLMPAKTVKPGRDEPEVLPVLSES
T1 sequence (looked up) 2: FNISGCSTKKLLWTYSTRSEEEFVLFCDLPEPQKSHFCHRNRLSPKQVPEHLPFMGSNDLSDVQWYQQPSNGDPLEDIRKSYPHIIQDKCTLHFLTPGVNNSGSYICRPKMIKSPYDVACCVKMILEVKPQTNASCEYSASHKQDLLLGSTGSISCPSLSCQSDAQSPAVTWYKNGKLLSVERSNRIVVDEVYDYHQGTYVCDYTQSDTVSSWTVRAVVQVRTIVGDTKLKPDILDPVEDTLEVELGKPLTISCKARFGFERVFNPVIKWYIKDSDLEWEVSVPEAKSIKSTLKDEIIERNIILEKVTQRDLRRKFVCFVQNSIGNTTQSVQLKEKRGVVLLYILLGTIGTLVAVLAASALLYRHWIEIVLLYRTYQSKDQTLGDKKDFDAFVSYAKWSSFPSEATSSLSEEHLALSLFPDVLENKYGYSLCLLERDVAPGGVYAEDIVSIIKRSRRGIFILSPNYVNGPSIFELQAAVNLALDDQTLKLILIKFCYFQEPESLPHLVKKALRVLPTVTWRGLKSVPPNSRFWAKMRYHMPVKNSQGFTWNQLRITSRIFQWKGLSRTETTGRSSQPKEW

T2: IL-18 receptor (IL-18Rα/IL-18Rβ) on human PBMCs (human, UniProt Q13478 19-541; O95256 20-599)
T2 sequence (looked up) 1: T1 sequence (looked up) 1
T2 sequence (looked up) 2: T1 sequence (looked up) 2

B1: DGL620 (bispecific antibody)
chain 1: EVQLLESGGGLVQPGGSLRLSCAASGRTFSKHAMGWFRQAPGKGLEFVSAIDWSGGSTYYADSVKGRFTISRDNSKNTVYLQMNSLRAEDTAVYYCAADSYTDYAQLWLPELESEYDYWGQGTLVTVSSCPPCPAPEAAGAPSVFLFPPKPKDTLYITREPEVTCVVVDVSHEDPEVKFNWYVDGVEVHNAKTKPREEQYNSTYRVVSVLTVLHQDWLNGKEYKCKVSNKALPAPIEKTISKAKGQPREPQVCTLPPSRDELTKNQVSLSCAVKGFYPSDIAVEWESNGQPENNYKTTPPVLDSDGSFFLVSKLTVDKSRWQQGNVFSCSVMHEALHNHYTQKSLSLSPG
chain 2: QLQLLESGGGLVQAGGSLRLSCAASRSITFSHNVMGWYRQAPGKGRELVSSIGSGGSTNYVDSVKGRFTISRDNSKKTLYLQMNSLRAEDTAVYYCGVVVGVYRGSLGQGTLVTVSSCPPCPAPEAAGAPSVFLFPPKPKDTLYITREPEVTCVVVDVSHEDPEVKFNWYVDGVEVHNAKTKPREEQYNSTYRVVSVLTVLHQDWLNGKEYKCKVSNKALPAPIEKTISKAKGQPREPQVYTLPPCRDELTKNQVSLWCLVKGFYPSDIAVEWESNGQPENNYKTTPPVLDSDGSFFLYSKLTVDKSRWQQGNVFSCSVMHEALHNHYTQKSLSLSPG
B2: DGL336 (bispecific antibody, V domains shown)
V domain 1: EVQLLESGGGLVQPGGSLRLSCAASGRTFSKHAMGWFRQAPGKGLEFVSAIDWSGGSTYYADSVKGRFTISRDNSKNTVYLQMNSLRAEDTAVYYCAADSYTDYAQLWLPELESEYDYWGQGTLVTVSS
V domain 2: EVQLVESGGGLIQPGGSLRLSCAASGSISSRDTMGWYRQAPGKGREMVSVISSSGNTNYADSVLGRFTISRDNAKNTVYLQMNALRAEDTAVYKCYAHRTYGVDYWGQGTLVTVSS
B3: DGL346 (bispecific antibody)
chain 1: EVQLVESGGGLIQPGGSLRLSCAASGSISSRDTMGWYRQAPGKGREMVSVISSSGNTNYADSVLGRFTISRDNAKNTVYLQMNALRAEDTAVYKCYAHRTYGVDYWGQGTLVTVSSGGGSQVQLVESGGGLVQPGGSLRLSCAASGRTFSSYTMGWFRQAPGKGREFVSAISWSAGRTYYADSVKGRFTISRDNAKNTVYLQMNALRAEDTAVYYCAAEEAPDWAPIDCSGYGCLSLYDYWGQGTLVTVSDKTHTCPPCPAPEAAGAPSVFLFPPKPKDTLYITREPEVTCVVVDVSHEDPEVKFNWYVDGVEVHNAKTKPREEQYNSTYRVVSVLTVLHQDWLNGKEYKCKVSNKALPAPIEKTISKAKGQPREPQVCTLPPSRDELTKNQVSLSCAVKGFYPSDIAVEWESNGQPENNYKTTPPVLDSDGSFFLVSKLTVDKSRWQQGNVFSCSVMHEALHNHYTQKSLSLSPG
chain 2: DKTHTCPPCPAPEAAGAPSVFLFPPKPKDTLYITREPEVTCVVVDVSHEDPEVKFNWYVDGVEVHNAKTKPREEQYNSTYRVVSVLTVLHQDWLNGKEYKCKVSNKALPAPIEKTISKAKGQPREPQVYTLPPCRDELTKNQVSLWCLVKGFYPSDIAVEWESNGQPENNYKTTPPVLDSDGSFFLYSKLTVDKSRWQQGNVFSCSVMHEALHNHYTQKSLSLSPG

Assays:
Assay in all cases: cell-based or functional assay
[1] = target: T1, IL-18 receptor (IL-18Rα and IL-18Rβ) on …
[2] = target: T1, IL-18 receptor (IL-18Rα and IL-18Rβ) on …; remark: listed apart in the source
[3] = target: T2, IL-18 receptor (IL-18Rα/IL-18Rβ) on …

| Binder | EC50 (read off the curve) [1] [nM] | HEK-Blue: Abs 405 at 100 nM [2] [absorbance] | HEK-Blue: Fold over background [2] [fold] | Calculated maximum induction of IFN-γ after 24 hours, donor 1 [3] | Calculated maximum induction of IFN-γ after 24 hours, donor 2 [3] | Calculated maximum induction of IFN-γ after 24 hours, donor 3 [3] | Calculated maximum induction of IFN-γ after 24 hours, donor 4 [3] | Calculated maximum induction of IFN-γ after 24 hours, donor 5 [3] | Calculated maximum induction of IFN-γ after 24 hours, donor 6 [3] |
| --- | --- | --- | --- | --- | --- | --- | --- | --- | --- |
| B1 | ~1 | 1.87 | 10.1 | 16000 | 1300 | 22000 | 19000 | 15000 | 2400 |
| B2 | – | 0.9 | 4.9 | 13000 | 620 | 17000 | 9300 | 1500 | 1300 |
| B3 | – | 1.34 | 7.2 | 16000 | 1700 | 22000 | 17000 | 15000 | 3000 |
